In the RNAGym collection of RNA variant scans (doi:10.1073/pnas.2313332121):

B1: TPR t1 (parent)
chain: GACCAAUCUGCCCUCAGAGCUCGAGAACAUCUUCGGAUGCAGAGGAGGCAGGCUUCGGUGGCGCGAUAGCGCCAACGUCCUCAACCUCCAAUGCAUCCCACCACAUGAUGAUGCCUGAAGAGCCUUGGUUUUUUG

Variants of: B1
Assay: polymerase ribozyme fitness, log enrichment relative to wild type (log ratio); higher = more active; in vitro selection for triplet polymerase activity
How it was run: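 Genotype fitness is the logarithm of its enrichment divided by wild-type enrichment, using inverse-variance-weighted averages of replicates. That logarithm is base 2. Enrichment was measured by Illumina sequencing of input and output libraries from one triplicate in vitro selection round, with frozen incubation at −7 °C, on PCR-built, transcribed mutant libraries of each subunit of a heterodimeric triplet polymerase ribozyme, retaining genotypes with ≥10 input reads and ≥1 read per output.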

Row | Variant | polymerase ribozyme fitness (log ratio)
1 | A16C C20G U59G U106A G113A | -5.4
2 | C8G U9G C12A G69A C88G U132A | -4.01
3 | A2C C49A | -1.83
4 | C4U C53U U125A | -1.45
5 | G39U U92C C101G | -5.46
6 | U7C U106C | -0.478
7 | A46U C79U U96A C115U C123G U132A | -2.94
8 | G60C C115A G120U | -0.0517
9 | C11G A24G C49G U59G | -2.66
10 | C64G U78C | -6.9
11 | A6G U87G A121C | 1.92
12 | C13A A90G A95G U133G | -1.7
13 | G60U G93U A108G G120U | -3.22
14 | G45U C64U | -0.713
15 | G58C C101G C114A | -3.77
16 | U21A A43U G61U C102A | -4.93
17 | U116C G117U | -1.01
18 | C11A C70G | -3.13
19 | G77A C79U C124A | 1.87
20 | A6G C115A | 0.525
21 | G52U G69U A91C C104A | -2.27
22 | A100U U126G G135U | -2.69
23 | A2U G61C | -3.94
24 | U9G C73U C82A A83C A118U G128A | -1.71

Row | Variant | polymerase ribozyme fitness (log ratio)
25 | U55C C62G G128U | -4.02
26 | C8G G52A G63C C94G G113C U131G | -4.64
27 | U9A C56U | 0.248
28 | C12U C15G G63U G120U | -0.846
29 | C34A G120A | -2.29
30 | C79A U112C G127A | -1.43
31 | C94U A95C | -1.19
32 | C4G A5C C82U U125A | -1.74
33 | C28U G110U | -1.44
34 | U32A G39U G45C C64G C114A | -6.51
35 | G10A U81A | -0.546
36 | C49U C56U C72G C101G | -3.7
37 | G71A U109C | -4.59
38 | G63U C73A A84U C86U A100G A111C | -6.77
39 | G71U G110U | -1.24
40 | G39A A111C | -0.291
41 | C13G C124G | 0.288
42 | C15A C20U U109A | -5.4
43 | C73U C79A A90C C115A | -2.96
44 | G39U G63C A91C G113U A121C | -3.83
45 | C62A G77A | -2.78
46 | C20U G63U G93A C114G | -2.6
47 | C3G G36U C72G C86A C99G U112G U129C U134G | -5.02
48 | G60A C80A C85G C98U | -5.64

Row | Variant | polymerase ribozyme fitness (log ratio)
49 | A5C C56G | -1.73
50 | G45C C49U C97U A100U A121C U133C | -0.146
51 | G63C C114A | -2.44
52 | C12U C73U | 0.0527
53 | C4G C13U U21C C62G G120U | -2.48
54 | A6U G19U | -2.29
55 | C34A G113U | -5.39
56 | C15U G63A C79A U112G | -5.66
57 | C49G G71C A84U G110C | -6.35
58 | A2C C72A | -2.14
59 | C20A C31U G44C A68C G113C U116C G135C | -5.66
60 | A68U A121G | -6.65
61 | A74C G113U C115U G117A C123A | -6.47
62 | A26G A37U C49U G120U | -2.45
63 | C82G U109C | -5.03
64 | C22A G36U U55C G120A | -4.54
65 | C11A C12A C22A C40U A46U U78C C114A | -6.96
66 | A24G G39C U92G C104U | -5.73
67 | A24U G39A C72A U112C | -7.11
68 | U9G A83G G93A C102A C123U | -2.93
69 | C13A G110C | -4.52
70 | C11U A46C | -1.05
71 | U78A C82G C115A U130A | -0.912
72 | A6U C49A C62U | -1.33

Row | Variant | polymerase ribozyme fitness (log ratio)
73 | A41C G107A | -5.61
74 | U54G C56U | -4.05
75 | A18C C56G | -2.15
76 | G48U C64U G120A C123U | 0.28
77 | C40G G45A A46C G51C G58A G63C G110A G113U G117C | -7.24
78 | C12U C49G G113U C114A U129A | -4.7
79 | G42A A50U C101U | -4.32
80 | G63A A119U | -1.29
81 | C12U G77C | 0.201
82 | A2U C20U G63C C89A A111C C123A | -4.79
83 | G69C G120A | -0.926
84 | C56A C124A G127A | 0.497
85 | G60A C115G | -1.65
86 | G35U C73G | -5.75
87 | G77C C88A | -0.0409
88 | G48C C70U | -0.829
89 | G63U G120C G128C | -4.02
90 | C89U A100U | -1.41
91 | G23C A121G | -6.91
92 | C40G G61A C72U U112C | 1.6
93 | C85G G113A | -2.15
94 | C8U C15U G36A A68G C97U G120A | -1.91
95 | G77C U106A A111C C114G U131C | -5.23
96 | C62U U106G A121U G122U | -1.15

Row | Variant | polymerase ribozyme fitness (log ratio)
97 | U54G A95U | -0.988
98 | C13A C70G C123A | -2.2
99 | G113U U134G | -1.78
100 | C13G C15A A18C C79U G120U | -2.11
101 | C11A A46U C64A G113U | -6.19
102 | A2G C40U U55C | -1
103 | C114G | -2.37
104 | C40G C64U | -1.16
105 | A95U G113A G127A | -2.73
106 | A29U G42C A66G A119U | -4.64
107 | U14G C20G G44U G117C | -6.5
108 | C15U C70U G71A | -1.62
109 | G36U U78G C115G | -4.29
110 | A37U U125A | -1.35
111 | C34A G60U | -3.73
112 | A6U U54C | 0.558
113 | C49G U59G C62U G122A | -1.61
114 | A5G U112C C124G G128A | -0.522
115 | C86G C89A C114A | -4.58
116 | C49G G117U | -2.86
117 | G36U A46C A50U A84U | -5.6
118 | G19C A41U U130C | -2.43
119 | A27U A41U C49U C72U | -5.06
120 | C4U A5U C31G G45U U54A A68U G110A C114U | -6.24

Row | Variant | polymerase ribozyme fitness (log ratio)
121 | C73A C104U U130G U132C | 1.03
122 | G45C C86G C102U G120U | -7.48
123 | U7A A41G U92A | -1.89
124 | C89U U109C | -3.31
125 | A37U G52U | -1.37
126 | C12A A74G C123A U131A | 2.13
127 | G44U G77C A90U | -1.31
128 | C88U A121C | 1.77
129 | A6G C40U G51U | -4.1
130 | A2U C8U C11G C72A | -0.286
131 | C13G A37U U38C C62U | -4.23
132 | C11U G77U A91U | -1.63
133 | C13U C34A G71C A121U | -2.27
134 | C49G C85A G113U | -4.81
135 | U67A C70G C89G C123G | -6.22
136 | G10A A37G G47U U59A G117U G122U U125G | -5.7
137 | U125G U132C | -0.45
138 | U32C C124G | 1.48
139 | C15G A37U A66G C123A | -3.27
140 | U55A | -0.12
141 | C12A G61A C64U | -4
142 | A6U C11U U14G A46C | -4.04
143 | G60U A68G | -3.02
144 | U81A C102A | -3.36

Row | Variant | polymerase ribozyme fitness (log ratio)
145 | G42C A46C C62U A95G U96G | -4
146 | C94A G135U | -1.66
147 | C73A C86U | 1.13
148 | C13U C56U U92C C114A | -1.92
149 | G52A C114U | -2.52
150 | A2U C72A A83U C123G U126A | -0.343
151 | A6U C70U A105U U125A | -3.91
152 | U7A G44C C124G U129G G135U | -0.681
153 | C53A C56A A84G U106C G113A | -2.51
154 | C8A A18C U21G | -4.13
155 | U87A C124U | 1.04
156 | C97A A105G | -5.98
157 | C12A G25U A27C A37C U38A C70G C82U C115U | -6.08
158 | A37G C98U | -1.79
159 | U9A C73G G117A | 0.428
160 | A5G U9G A111U U126A | -3.21
161 | C8G G117C | -0.943
162 | A2G U59C C85U C124A | 0.474
163 | U7C C12A C88A U96A C104U | -1.43
164 | C34U C62A | -4.23
165 | C49A G60C G127A U131A | -3.76
166 | C12A C99U C123U U129G | -3.57
167 | C11G G36C G77A | -0.0394
